Where a chain is given by its changes, count along the chain named. In names and notes the source's numbering stands. Where two headings read alike, the source gives them in different places.
Experiments:
Experiment in all cases: cryo-EM structure
bovine calmodulin = bovine calmodulin (bovine, UniProt P62157 1-149)
cryo-EM structure [1] = biological target: the molecule itself
cryo-EM structure [2] = biological target: the molecule itself; remark: listed apart in the source

B1: rabbit TRPV5 full length channel (1-730) (natural protein)
chain: MGACPPKAKGPWAQLQKLLISWPVGEQDWEQYRDRVNMLQQERIRDSPLLQAAKENDLRLLKILLLNQSCDFQQRGAVGETALHVAALYDNLEAATLLMEAAPELAKEPALCEPFVGQTALHIAVMNQNLNLVRALLARGASVSARATGAAFRRSPHNLIYYGEHPLSFAACVGSEEIVRLLIEHGADIRAQDSLGNTVLHILILQPNKTFACQMYNLLLSYDEHSDHLQSLELVPNHQGLTPFKLAGVEGNTVMFQHLMQKRKHVQWTCGPLTSTLYDLTEIDSWGEELSFLELVVSSKKREARQILEQTPVKELVSFKWKKYGRPYFCVLASLYILYMICFTTCCIYRPLKLRDDNRTDPRDITILQQKLLQEAYVTHQDNIRLVGELVTVTGAVIILLLEIPDIFRVGASRYFGQTILGGPFHVIIITYASLVLLTMVMRLTNMNGEVVPLSFALVLGWCSVMYFARGFQMLGPFTIMIQKMIFGDLMRFCWLMAVVILGFASAFHITFQTEDPNNLGEFSDYPTALFSTFELFLTIIDGPANYSVDLPFMYCITYAAFAIIATLLMLNLFIAMMGDTHWRVAQERDELWRAQVVATTVMLERKMPRFLWPRSGICGYEYGLGDRWFLRVENHHDQNPLRVLRYVEAFKCSDKEDGQEQLSEKRPSTVESGMLSRASVAFQTPSLSRTTSQSSNSHRGWEILRRNTLGHLNLGLDLGEGDGEEVYHF
For B1, the binding result (bovine calmodulin) was “binds” and the “stoichiometry N” value (cryo-EM structure [1]) was 4.

B2: rabbit TRPV5 with a C-terminal truncation (1-660) (domain or fragment)
chain: MGACPPKAKGPWAQLQKLLISWPVGEQDWEQYRDRVNMLQQERIRDSPLLQAAKENDLRLLKILLLNQSCDFQQRGAVGETALHVAALYDNLEAATLLMEAAPELAKEPALCEPFVGQTALHIAVMNQNLNLVRALLARGASVSARATGAAFRRSPHNLIYYGEHPLSFAACVGSEEIVRLLIEHGADIRAQDSLGNTVLHILILQPNKTFACQMYNLLLSYDEHSDHLQSLELVPNHQGLTPFKLAGVEGNTVMFQHLMQKRKHVQWTCGPLTSTLYDLTEIDSWGEELSFLELVVSSKKREARQILEQTPVKELVSFKWKKYGRPYFCVLASLYILYMICFTTCCIYRPLKLRDDNRTDPRDITILQQKLLQEAYVTHQDNIRLVGELVTVTGAVIILLLEIPDIFRVGASRYFGQTILGGPFHVIIITYASLVLLTMVMRLTNMNGEVVPLSFALVLGWCSVMYFARGFQMLGPFTIMIQKMIFGDLMRFCWLMAVVILGFASAFHITFQTEDPNNLGEFSDYPTALFSTFELFLTIIDGPANYSVDLPFMYCITYAAFAIIATLLMLNLFIAMMGDTHWRVAQERDELWRAQVVATTVMLERKMPRFLWPRSGICGYEYGLGDRWFLRVENHHDQNPLRVLRYVEAFKCSDKEDGQ
B2 was tested, and the “stoichiometry N” value (cryo-EM structure [2]) was 4.

B3: full length TRPV5 with a W583A point mutation (natural protein)
chain: B1 chain with W583A
In the case of B3, the “stoichiometry N” value (cryo-EM structure [2]) is reported as 4.

Source: paper doi:10.1101/434902 (bioRxiv, 2018)
